Data from patent US20040202655A1 (published 2004).
Values joined by “and” are separate entries in the source; they are usually repeats but may differ in a detail not shown here. Equal entries are not always repeated.

Assays:
[1] = molecular target: T1, human IGF-I receptor on cells (NIH-3T3 fibroblasts expressing the human IGF-IR; DU145 cells) (human, UniProt P08069 31-1367); assay: cell-based or functional assay
[2] = molecular target: T1, human IGF-I receptor on cells (NIH-3T3 …); assay: competition with 125I-IGF-I, NIH-3T3 cells expressing human IGF-1R, 4 C
Description: (§1) NIH-3T3 fibroblasts expressing the human IGF-IR, or NIH-3T3 non-transfected fibroblasts were plated at 6×10⁴ cells per well in 0.5 ml of DMEM (Gibco, #11960-044) supplemented with 10% heat-inactivated fetal bovine serum (Gibco, #16140-071), 2 mM L-glutamine (Gibco, #25030-081) and 50 U/ml penicillin-streptomycin (Gibco, #15070-063). The NIH-3T3 cells were used as a control for non-specific cell binding. The plates were incubated at 37° C./5% CO₂ for 24 hours to allow cells to attach and become 80-90% confluent. The overlying media was then replaced with 0.5 ml per well of starvation media consisting of DMEM, 20 mM Hepes (Gibco, #15630-080), 2 mM L-glutamine and 0.1% bovine serum albumin (Equitech-Bio, protease-free, Kerrville, Tex.) and the plates were incubated at 37° C., 5% CO₂ overnight. All subsequent binding steps were conducted at 4° C. Test antibodies were diluted in ice-cold starvation media to the desired final concentration and 100 μl added per well. All samples were performed in duplicate. […] Cell monolayers were washed three times with ice-cold PBS (Gibco, #14040-117) and cells and associated radioactivity were released by adding 0.5ml 2% sodium dodecyl sulfate/0.2N NaOH to each well and heating the plates at 60° C. for 15 minutes. Lysate associated radioactivity was quantitated by gamma scintillation spectrometry. Alternatively, the same described experiment was performed with preincubation with the test antibodies at 37° C. for 10 minutes, followed by 10 minutes incubation at 37° C. after addition of 400 pM of the iodinated radioligand.

[3] = molecular target: T1, human IGF-I receptor on cells (NIH-3T3 …); assay: cell-based or functional assay; remark: listed apart in the source
[4] = molecular target: T2, human insulin receptor on CHO cells (human, UniProt P06213 28-1382); assay: competition with 125I-insulin, CHO cells expressing human insulin receptor, 4 C
T2 construct: whole, on cells
Description: The Parental 3T3 cells were used as a control for background radioactivity. We then incubated the plates at 37° C., 5% CO₂ for 24 hours to allow cells to attach and become 80-90% confluent. The media was decanted from the plates, replaced with 500 μl per well of starvation or assay media consisting of IMDM, 20 mM Hepes (Gibco, #15630-080), 2 mM L-glutamine and 0.1% bovine serum albumin (Equitech-Bio, protease-free, Kerryville, Tex.) and the plates were incubated at 37° C., 5% CO₂ overnight. The antibodies were diluted in cold assay media to the desired final concentration and added 100 μl per well. All samples were performed in duplicate. The plates were incubated at 4° C. for 30 minutes. […] The plates were incubated for 2.5 hours at 4° C., then aspirated the media and washed 3× with cold DPBS (Gibco, #14040-117). The cells were lysed by adding 500 μl 0.2 NaOH, 2% SDS and incubating the plates for 15 minutes at 60° C. The samples were transferred to 12×75 tubes (Sarsted, #55.476, 5 ml) and the signal read on a gamma counter.

[5] = molecular target: T1, human IGF-I receptor on cells (NIH-3T3 …); assay: competition with 125I-IGF-II, NIH-3T3 cells expressing human IGF-1R, 4 C
Description: as §1

Binder	IC50 (nM), IGF-1 dependent proliferation of NIH-3T3/hIGF-1R cells (BrdU ELISA) [1]	IC50 [2]	Antagonist Assay IC50 (nM), IGF-I-induced IGF-1R tyrosine phosphorylation (ELISA) [3]	IC50 [4] [nM]	IC50 [5]
PINT-11A3 IgG (antibody, V domains shown) VH: EVQLVQSGAEVKKPGASVKVSCKASGYSFTNYGLNWVRQAPGQGLEWMGWISPYTGYTNYAQKFQGRVTMTTDKSTSTAYMDLRSLRSDDTAVYYCAREIFSHCTGGSCYPFDSWGRGTLVTVSS VL: LSSELTQDPAVSVALGQTVRITCQGDSLRNYYASWYQQKPGQAPLLVMFGKNNRPSEIPGRFSGSSSGNTASLTITGAQAEDEADYYCNSRDRNSHQWVFGGGTKLTVLG	32.1 nM and > 70 nM	1.1 nM and 1.2 nM	–	–	–
PINT-11A5 IgG (antibody, V domains shown) VH: QVQLVQSGAEVKKPGASVKVSCKASGYSFTNYGLNWVRQAPGQGLEWMGWISPYTGYTNYAQKFQGRVTMTTDKSTSTAYMDLRSLRSDDTAVYYCAREIFSHCTGGSCYPFDSWGKGTLVTVSS VL: LSSELTQDPAVSVALGQTVRITCQGDSLRSYYASWYQQKPGQAPVLVIYGKNNRPSGIPDRFSGSSSGNTASLTITGAQAEDEADYYCNSRDSSGNHHWVFGGGTKVTVLG	> 70 nM	1.2 nM and < 0.4 nM and 0.75 nM	> 40 nM	> 200	–
PINT-12A3 IgG (antibody, V domains shown) VH: QVQLVQSGAEVKKPGASVKVSCKASGYSFTNYGLNWVRQAPGQGLEWMGWISPYTGYTNYAQKFQGRVTMTSDKSTSTAYMDLRSLRSDDTAIYYCAREIFSHCSGGSCYPFDYWGQGTLVTVSS VL: LSSELTQDPAVSVALGQTVRITCQGDSLRSYYASWYQQKPGQAPLLVIYGRNNRPSGIPDRFSGSSSGNTASLTITGAQAEDEADYYCNSRDSSTNHGNWVFGGGTQLTVLS	> 70 nM	1.5 nM and 1.7 nM	> 40 nM	> 200	–
PINT-11A7 IgG (antibody, V domains shown) VH: EVQLVQSGAEVKKPGASVKVSCKASGYSFTNYGLDWVRQAPGQGLEWMGWISPYTGYTNYAQKFQGRVTMTTDKSTSTAYMDLRSLRSDDTAVYYCAREIFSHCTGGSCYPFDSWGRGTMVTVSS VL: LSSELTQDPAVSVALGQTVRITCQGDSLRSYYASWYQQKPGQAPVLVIYGKNNRPSGIPDRFSGSSSGNTASLTITGAQAEDEADYYCNSRDSSGNHRNWVFGGGTKVTVLG	> 70 nM	1 nM and 1.4 nM	26.6 nM and > 40 nM and 25.5 nM	> 200	–
PINT-12A1 IgG (antibody, V domains shown, see recheck) VH: EVQLVQSGAEVKKPGASVKVSCKASGYSFTNYGLNWVRQAPGQGLEWMGWISPYTGYTNYAQKFQGRVTMTTDKSTSTAYMDLRSLRSDDTAVYYCAREIFSHCTGGSCYPFDSWGKGTLVTVSS VL: LSSELTQDPAVSVALGQTVRITCQGDSLRNYYASWYQQKPGQAPVLVLYSKNSRPSGVPDRFSGSSSGTTASLTISGAQAEDEADYYCNSRDTSGDLRWVFGGGTKLTVLG	> 70 nM	1.5 nM and 1.2 nM	> 40 nM	> 200	–
PINT-12A2 IgG (antibody, V domains shown) VH: EVQLVQSGAEVKKPGASVKVSCKASGYSFTNYGLNWVRQAPGQGLEWMGWISPYTGYTNYAQKFQGRVTMTTDKSTSTAYMDLRSLRSDDTAVYYCAREIFSHCTGGSCYPFDSWGQGTLVTVSS VL: LSSELTQDPAVSVALGQTVRITCQGDSLRNYYASWYQQKPGQAPLLVMFGKNNRPSEIPGRFSGSSSGNTASLTITGAQAEDEADYYCNSRDSNSHQWVFGGGTKLTVLG	> 70 nM	1 nM and 0.7 nM	> 40 nM	> 200	–
PINT-12A4 IgG (antibody, V domains shown) VH: QVQLVQSGAEVKKPGASVKVSCKASGYSFTNYGLNWVRQAPGQGLEWMGWISPYTGYTNYAQKFQGRVTMTTDKSTSTAYMDLRSLRSDDTAVYYCAREIFSHCTGGSCYPFDSWGRGTMVTVSS VL: LSSELTQDPAVSVALGQTVRITCQGDSLRSYYASWYQQKPGQAPVLVIYGKNNRPSGIPDRFSGSSSGNTASLTITGAQAEDEADYYCNSRDSSGNLNWVFGGGTQLTVLS	> 70 nM	> 50 nM	> 40 nM	> 200	–
PINT-11A12 IgG (antibody, V domains shown) VH: not shown VL: AQAVLTQPSSVSGAPGQRVTISCTGSRSNFGAGYDVHWYQQFPGTAPKLLIYGNTNRPSGVPDRFSGSRSGTSASLAITGLQAEDEADYYCQSYDSNLSGSVFGGGTKVTVLG	> 70 nM	–	> 40 nM	> 200	–
PINT-11A11 IgG (antibody, V domains shown) VH: QVQLVESGGGLVKPGGSLRLSCAASGFTFSSHTMNWVRQAQGKGLEWVSSISGSGRYIYYSDSVKGRFTISRDAAKNSLYLQMNNLRAEDTAVYYCTRAKFGDYLFDSWGQGTLVTVSS VL: LNFMLTQPHSVSQSPGKTVTISCTRSSGRIASNFVQWYQQRPGSAPTTVIYEDNRRPSGVPDRFSGSIDSSSNSASLTISGLKTEDEADYYCQSYDARYQVFGTGTKVTVLG	16.4 nM and 25 nM	1.6 nM	14.9 nM and 10.6 nM	> 200	–
PINT-11A1 IgG (antibody, V domains shown) VH: EVQLVESGGGVVQPGRSLRLSCAASGFTFSDFAMHWVRQIPGKGLEWLSGLRHDGSTAYYAGSVKGRFTISRDNSRNTVYLQMNSLRAEDTATYYCVTGSGSSGPHAFPVWGKGTLVTVSS VL: not shown	5.4 nM and 3.3 nM	8 nM and 10 nM	5.4 nM and 7.4 nM	–	> 75 nM
PINT-11A2 IgG (antibody, V domains shown) VH: not shown VL: LSSELTQDPDVSMALGQTVTISCRGDSLKRFYASWYHQKPGQAPVLVFYGKENRPSGIPDRFSGSDSGDTASLTITGAQAEDEGDYYCHTQDTSARQYVFGSGTKVTVLG	> 70 nM	> 100 nM	> 40 nM	–	–
PINT-7A2 IgG (antibody, V domains shown) VH: GVQLVQSGAEVKKPGESLTISCKGSGYNFFNYWIGWVRQMPGKGLEWMGIIYPTDSDTRYSPSFQGQVTISVDKSISTAYLQWSSLKASDTAMYYCARSIRYCPGGRCYSGYYGMDVWGQGTMVTVSS VL: SELTQDPAVSVALGQTVRITCQGDSLRSYYTNWFQQKPGQAPLLVVYAKNKRPSGIPDRFSGSSSGNTASLTITGAQAEDEADYYCNSRDSSGNHVVFGGGTKLTVLG	5 nM and 3.8 nM	0.5 nM and 1.3 nM	2.62 nM and 1.97 nM	–	< 0.8 nM and 0.4 nM
PINT-7A6 IgG (antibody, V domains shown) VH: EVQLVQSGAEVKKPGESLTISCKGSGYNFFNYWIGWVRQMPGKGLEWMGIIYPTDSDTRYSPSFQGQVTISVDKSISTAYLQWSSLKASDTAMYYCARSIRYCPGGRCYSGYYGMDVWGQGTLVTVSS VL: SELTQDPAVSVALGQTVRITCQGDSLRSYYTNWFQQKPGQAPLLVVYAKNKRPSGIPDRFSGSSSGNTASLTITGAQAEDEADYYCNSRDSSGNHVVFGGGTKLTVLG	> 70 nM	1 nM and 0.8 nM	9.7 nM and 8.5 nM	–	< 0.8 nM and 0.3 nM
